Positions count from the first letter of the chain named.

These results are taken from patent publication US20200317768A1 (published 2020).

Sequences and labels used below:
T1: human FcγRIIaR extracellular domain with C-terminal His-tag (human, UniProt P12318 34-217)
T1 construct: Expressed in FreeStyle 293 cells and purified; also called human FcγRIIa (type R); FcgRIIaR; not shown: C-terminal His-tag
T1 chain: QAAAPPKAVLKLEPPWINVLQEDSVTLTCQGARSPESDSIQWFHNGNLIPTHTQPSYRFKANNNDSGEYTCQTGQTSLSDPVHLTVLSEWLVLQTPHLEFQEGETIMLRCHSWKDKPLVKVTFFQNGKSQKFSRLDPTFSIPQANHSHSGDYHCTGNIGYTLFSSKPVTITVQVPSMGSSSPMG

T2: human FcγRIIaH extracellular domain with C-terminal His-tag (human, UniProt P12318 34-217)
T2 construct: Expressed in FreeStyle 293 cells and purified; also called human FcγRIIa (type H); FcgRIIaH; not shown: C-terminal His-tag
T2 sequence: T1 chain with R134H

T3: cynomolgus monkey FcγRIIa1 extracellular domain with C-terminal His-tag (cynomolgus monkey)
T3 construct: Expressed in FreeStyle 293 cells and purified; also called cyno FcγRIIa1; cynoFcgRIIa1; not shown: C-terminal His-tag
T3 chain: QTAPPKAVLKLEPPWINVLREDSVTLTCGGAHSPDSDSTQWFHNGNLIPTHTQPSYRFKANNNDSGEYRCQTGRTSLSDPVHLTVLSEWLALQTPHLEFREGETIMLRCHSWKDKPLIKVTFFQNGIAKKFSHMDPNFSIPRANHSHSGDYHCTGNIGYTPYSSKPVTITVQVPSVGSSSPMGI

T4: human FcγRIIb extracellular domain with C-terminal His-tag (human, UniProt P31994 43-217)
T4 construct: Expressed in FreeStyle 293 cells and purified; also called humanFcgRIIb; not shown: C-terminal His-tag
T4 sequence: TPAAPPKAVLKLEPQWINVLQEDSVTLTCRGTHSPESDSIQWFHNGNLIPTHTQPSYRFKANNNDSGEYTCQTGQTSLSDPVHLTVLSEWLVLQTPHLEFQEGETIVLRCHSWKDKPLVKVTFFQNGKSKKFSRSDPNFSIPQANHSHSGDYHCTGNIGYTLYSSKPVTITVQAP

T5: cynomolgus monkey FcγRIIa3 extracellular domain with C-terminal His-tag (cynomolgus monkey)
T5 construct: Expressed in FreeStyle 293 cells and purified; also called cyno FcγRIIa3; cynoFcgRIIa3; not shown: C-terminal His-tag
T5 chain: T3 chain with P95T, T121A, A128S, H133P, D135N

T6: cynomolgus monkey FcγRIIIaS extracellular domain with C-terminal His-tag (cynomolgus monkey, UniProt Q8SPW2 21-206 at identity 1.00))
T6 construct: Expressed in FreeStyle 293 cells and purified; also called cyno FcγRIIIaS; cynoFcγRIIIaS; not shown: C-terminal His-tag
T6 chain: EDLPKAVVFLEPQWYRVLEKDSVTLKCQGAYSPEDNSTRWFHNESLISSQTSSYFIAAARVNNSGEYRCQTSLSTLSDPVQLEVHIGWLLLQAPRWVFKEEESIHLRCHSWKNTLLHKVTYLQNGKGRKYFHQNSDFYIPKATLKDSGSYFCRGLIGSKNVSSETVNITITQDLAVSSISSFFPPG

B1: M103205H795-MY182 / M103202L889-SK1 (antibody, human IgG1, kappa)
heavy: QVTLKESGPVLVKPTETLTLTCTVSGIDLSHDDISWVRQAPGKGLEWVGIISYAGSTYYASWAKGRLTISKDTSKNQVVLTMTNMDPVDTATYYCARGVPAYSHGGDLWGQGTLVTVSSASTKGPSVFPLAPSSKSTSGGTAALGCLVKDYFPEPVTVSWNSGALTSGVHTFPAVLQSSGLYSLSSVVTVPSSSLGTQTYICNVNHKPSNTKVDKKVEPKSCDKTHTCPPCPAPELLNGPSVFLFPPKPKDTLMISRTPEVTCVVVDVSEEDPEVKFNWYVDGVEVHNAKTKPREEQYNSTYRVVSVLTVLHQDWLNGKEYKCKVSNKALPAPIEKTISKAKGQPREPQVYTLPPSREEMTKNQVSLTCLVKGFYPSDIAVEWESNGQPENNYKTTPVVLDSDGSFFLYSKLTVDKSRWQQGNVFSCSVMHEALHNHYTQKSLSLSP
light: DIVMTQSPATLSLSPGERATLSCTSSQSVYHANWLSWFQQKPGQPPKLLIYWASTLAYGVPSRFSGSGSGTDFTLTISSLQPEDAATYYCAGGYGGGRYAFGQGTKVEIKRTVAAPSVFIFPPSDEQLKSGTASVVCLLNNFYPREAKVQWKVDNALQSGNSQESVTEQDSKDSTYSLSSTLTLSKADYEKHKVYACEVTHQGLSSPVTKSFNRGEC
notes: Position 396 variant derived from MY052, expressed with M103202L889-SK1 as light chain
B2: M103205H795-MY183 / M103202L889-SK1 (antibody, human IgG1, kappa)
heavy: B1 heavy with V398W
light: B1 light
notes: as for B1
B3: M103205H795-MY184 / M103202L889-SK1 (antibody, human IgG1, kappa)
heavy: B1 heavy with V398Y
light: B1 light
notes: as for B1

One assay has as its target T1, human FcγRIIaR extracellular domain …. As to the kind of experiment: SPR (Biacore); KD of SG1 divided by KD of the variant for this FcgR.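 Also: relative to parent M103205H795-SG1 carrying the SG1 human heavy chain constant region.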 For orientation: In SPR one partner is held on a chip, and binding of the other changes the refractive index at the surface.
With B1, the “KD fold (SG1 = 1)” value is 0.5 fold.
In the case of B2, the “KD fold (SG1 = 1)” value is 0.5 fold.
Same read-out and setting: then B3, with 0.6 fold.

Another assay addresses T2, human FcγRIIaH extracellular domain …. Briefly: SPR (Biacore), antibody captured on chip, FcgR extracellular domain as analyte, 25 C.
The Kd is the concentration at which binding is half-saturated. For B1, the dissociation constant Kd was 1300 nM.
Still for that read-out and setting: as for B2, the figure is 1200 nM; as for B3, 1100 nM.

Another assay deals with T3, cynomolgus monkey FcγRIIa1 …. The description is as above.
As to B1, the Kd came out at 2100 nM.
Still for that read-out and setting: as for B2, the figure is 2100 nM.
On the same count and under the same terms, then B3, with 1900 nM.

A further assay deals with T4, human FcγRIIb extracellular domain with …. Described as above.
As to B1, the affinity, expressed as Kd, was 1200 nM.
Same read-out and setting: as for B2, the figure is 1100 nM.
On the same count and under the same terms, as for B3, the figure is 1100 nM.

A further assay has as its target T5, cynomolgus monkey FcγRIIa3 …. The description is as above.
In the case of B1, binding was characterised by a dissociation constant (Kd) of 7800 nM.
On the same count and under the same terms, as for B2, the figure is 8400 nM; as for B3, 8400 nM.

The target of the next assay is T1, human FcγRIIaR extracellular domain …. The assay is described as above.
Molecule B1 showed a Kd of 2100 nM.
On the same count and under the same terms, then B2, with 2100 nM.
As for B3, the Kd stood at 2000 nM.

Another assay addresses T6, cynomolgus monkey FcγRIIIaS …. The description is as above.
On to B1, for which the dissociation constant (Kd) was 3500 nM.
The same measure, in the same setting: then B2, with 3500 nM; and B3, with 3300 nM.

In a further assay the target is T7, human FcγRIIIaV extracellular domain with C-terminal His-tag (human, UniProt P08637 17-208).
T7 construct: Expressed in FreeStyle 293 cells and purified; also called FcgRIIIaV; not shown: C-terminal His-tag
T7 sequence (P08637 17-208 F176V): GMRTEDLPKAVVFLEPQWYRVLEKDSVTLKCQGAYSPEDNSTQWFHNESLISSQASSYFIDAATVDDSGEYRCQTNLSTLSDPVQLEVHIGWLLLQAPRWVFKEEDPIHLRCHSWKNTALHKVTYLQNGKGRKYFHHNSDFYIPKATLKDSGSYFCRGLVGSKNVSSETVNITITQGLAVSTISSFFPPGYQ
The assay is described as above.
With B1, the affinity, expressed as Kd, was 7000 nM.
The same measure, in the same setting: then B2, with 7200 nM; and B3, with 6800 nM.
